Data on 6 substances can be found in patent US20050187160A1.

“And” between values parts separate entries of the source, which are not always exact repeats. Identical values can stand only once.

The target of the assay is T1, rabbit GH receptor (full length, stably expressed on murine FDC-P1 cells, GH-R4 line) (rabbit) (UniProt P19941).
T1 sequence (looked up): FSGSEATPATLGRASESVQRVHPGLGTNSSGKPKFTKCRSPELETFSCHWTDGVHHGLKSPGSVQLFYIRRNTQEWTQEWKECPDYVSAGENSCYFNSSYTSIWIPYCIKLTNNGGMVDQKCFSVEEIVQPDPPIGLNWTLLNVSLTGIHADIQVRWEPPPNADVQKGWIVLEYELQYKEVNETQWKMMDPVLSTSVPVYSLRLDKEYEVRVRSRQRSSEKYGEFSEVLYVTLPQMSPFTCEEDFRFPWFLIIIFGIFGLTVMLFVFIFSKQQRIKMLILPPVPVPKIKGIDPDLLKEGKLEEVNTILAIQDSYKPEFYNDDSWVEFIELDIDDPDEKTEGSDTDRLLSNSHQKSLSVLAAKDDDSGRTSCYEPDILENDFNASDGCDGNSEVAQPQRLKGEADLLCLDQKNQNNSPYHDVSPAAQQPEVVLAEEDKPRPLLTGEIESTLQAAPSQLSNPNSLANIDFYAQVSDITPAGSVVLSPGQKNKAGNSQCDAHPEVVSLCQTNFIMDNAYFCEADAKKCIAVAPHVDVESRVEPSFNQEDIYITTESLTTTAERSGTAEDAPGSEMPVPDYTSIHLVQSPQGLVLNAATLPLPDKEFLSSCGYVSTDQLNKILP
Description: cell-based or functional assay.

On to “hGH cysteine mutein T148C (from UniProt P01241 27-217) (ligand)”, for which the EC50, individual experiment (T148C-lotA), proliferation of FDC-P1 cells expressing the rabbit GH receptor is 0.4 ng/mL and 0.5 ng/mL; the EC50, individual experiment (T148C-lotB), proliferation of FDC-P1 cells expressing the rabbit GH receptor is 1.5 ng/mL and 1.9 ng/mL and 3.1 ng/mL; the Mean EC50 (T148C-lotA), proliferation of FDC-P1 cells expressing the rabbit GH receptor (GH-R4), MTS was determined as 0.5 ng/mL; the Mean EC50 (T148C-lotB), proliferation of FDC-P1 cells expressing the rabbit GH receptor (GH-R4), MTS is 2.5 ng/mL.

For the substance “PEG-T3C hGH (mono-PEGylated T3C monomer) (from UniProt P01241 27-217) (ligand)”, the mean EC50 (molar form), cell proliferation assay (Example 1) is 0.07 nM.

In turn, “hGH cysteine mutein T3C, disulfide-linked homodimer (from UniProt P01241 27-217) (ligand)” showed a Mean EC50, proliferation of FDC-P1 cells expressing the rabbit GH receptor (GH-R4), MTS of 1.4 ng/mL.

In the case of “hGH cysteine mutein S144C (from UniProt P01241 27-217) (ligand)”, the EC50, individual experiment (second value), proliferation of FDC-P1 cells expressing the rabbit GH receptor amounted to 1.1 ng/mL and the Mean EC50, proliferation of FDC-P1 cells expressing the rabbit GH receptor (GH-R4), MTS amounted to 1.6 ng/mL.

For “wild-type recombinant human growth hormone (rhGH) secreted to the E. coli periplasm from stII-hGH (from UniProt P01241 27-217) (ligand)”, the EC50, individual experiment, proliferation of FDC-P1 cells expressing the rabbit GH receptor is 0.8 ng/mL and 1.1 ng/mL; the Mean EC50, proliferation of FDC-P1 cells expressing the rabbit GH receptor (GH-R4), MTS was found to be 0.8 ng/mL.

Consider “PEG-S144C hGH (mono-PEGylated S144C) (from UniProt P01241 27-217) (ligand)”, for which the EC50, individual experiment, cell proliferation assay (Example 1) was 40 ng/mL and 45 ng/mL; the mean EC50 (molar form), cell proliferation assay (Example 1) is 2 nM.
